From patent US20040156842A1 (ZymoGenetics, published 2004) come the findings set out here.

Read-outs that look alike come from different tables or passages of the source.

Usually Kd stands for a measure of binding affinity in units of concentration. High values mean a looser complex, low ones a tighter complex.

Experiment [1] concerns the target T1, GPCR73a receptor (Homo sapiens (Human), UniProt Q8TCW9 1-393). Briefly: cell-based or functional assay.
For experiment [2], the target named is T1, GPCR73a receptor. Kind of experiment: cell-based or functional assay. This is another data set of the same source.
The target of experiment [3] is T2, GPCR73b receptor (Homo sapiens (Human), UniProt Q8NFJ6 1-384). Kind of experiment: cell-based or functional assay.
T2 sequence (Q8NFJ6 whole entry): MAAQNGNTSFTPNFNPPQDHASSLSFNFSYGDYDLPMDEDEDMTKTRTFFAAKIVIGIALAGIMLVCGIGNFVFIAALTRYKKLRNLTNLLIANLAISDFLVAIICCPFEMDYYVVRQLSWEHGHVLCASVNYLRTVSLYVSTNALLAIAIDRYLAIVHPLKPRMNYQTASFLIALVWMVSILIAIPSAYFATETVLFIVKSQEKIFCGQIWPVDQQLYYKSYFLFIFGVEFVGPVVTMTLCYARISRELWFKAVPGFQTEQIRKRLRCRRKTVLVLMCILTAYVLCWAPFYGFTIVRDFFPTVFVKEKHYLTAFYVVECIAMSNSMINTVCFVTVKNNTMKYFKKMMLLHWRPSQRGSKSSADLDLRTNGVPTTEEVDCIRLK
The target in experiment [4] is T2, GPCR73b receptor. Briefly: cell-based or functional assay. The source holds these as a separate data set.
The target in experiment [5] is GPCR73a receptor (Homo sapiens (Human)) (UniProt Q8TCW9). Briefly: cell-based or functional assay.
Chain of GPCR73a receptor (Homo sapiens (Human)) (Q8TCW9 whole entry): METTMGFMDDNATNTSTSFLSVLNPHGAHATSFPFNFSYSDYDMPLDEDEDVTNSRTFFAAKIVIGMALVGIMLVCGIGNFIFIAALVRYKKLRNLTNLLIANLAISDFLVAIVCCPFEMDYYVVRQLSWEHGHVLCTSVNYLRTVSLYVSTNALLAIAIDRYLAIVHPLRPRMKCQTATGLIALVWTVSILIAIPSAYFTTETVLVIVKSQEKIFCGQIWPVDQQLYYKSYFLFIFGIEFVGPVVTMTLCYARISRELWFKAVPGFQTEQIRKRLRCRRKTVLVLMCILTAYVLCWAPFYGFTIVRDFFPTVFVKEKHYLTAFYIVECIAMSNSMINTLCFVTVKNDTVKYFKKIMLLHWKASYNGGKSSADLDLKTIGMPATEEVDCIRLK
Experiment [6] concerns the target Zven1 receptor on Wky12-22 cells (rat). Kind of experiment: cell-based or functional assay.
The target is the same in experiment [7]. Briefly: saturation binding of I125-radiolabeled Zven1 to Wky12-22 cell monolayers at 4 C, two-site nonlinear regression; low affinity site.
Experiment [8] shares this target. Briefly: saturation binding of I125-radiolabeled Zven1 to Wky12-22 cell monolayers at 4 C, two-site nonlinear regression; high affinity site.
Experiment [9] concerns the target GPCR73b receptor (Homo sapiens (Human)) (UniProt Q8NFJ6). Briefly: cell-based or functional assay.
For experiment [10], the target named is GPCR73a receptor (Homo sapiens (Human)) (UniProt Q8TCW9). Kind of experiment: cell-based or functional assay. The source holds these as a separate data set.
Experiment [11] has as its target GPCR73b receptor (Homo sapiens (Human)) (UniProt Q8NFJ6). Kind of experiment: cell-based or functional assay. The source holds these as a separate data set.

Chain of GPCR73b receptor (Homo sapiens (Human)) (Q8NFJ6 whole entry): as the sequence (Q8NFJ6 whole entry) above
T1 sequence (Q8TCW9 whole entry): as the sequence (Q8TCW9 whole entry) above

B1: Zven1 (E. coli produced) (ligand)
chain: AVITGACDKDSQCGGGMCCAVSIWVKSIRICTPMGKLGDSCHPLTRKVPFFGRRMHHTCPCLPGLACLRTSFNRFICLAQK
Regarding B1, in the experiment with GPCR73a receptor [1], the “SRE luciferase fold-induction at 1 ng/ml” value was 1.9 fold-induction, the “SRE luciferase fold-induction at 3.2 ng/ml” value came out at 4 fold-induction, the “SRE luciferase fold-induction at 10 ng/ml” value is 8.4 fold-induction and the “SRE luciferase fold-induction at 32 ng/ml” value stood at 15 fold-induction. Also, in the experiment with GPCR73a receptor [1], the “SRE luciferase fold-induction at 100 ng/ml” value stood at 19 fold-induction, the “SRE luciferase fold-induction at 320 ng/ml” value came out at 20.7 fold-induction and the “SRE luciferase fold-induction at 1000 ng/ml” value is 17.8 fold-induction. Besides, in the experiment with GPCR73a receptor [2], the “SRE luciferase fold-induction at 1 ng/ml” value came to 4.1 fold-induction, the “SRE luciferase fold-induction at 3.2 ng/ml” value was determined as 7.6 fold-induction, the “SRE luciferase fold-induction at 10 ng/ml” value was 10.2 fold-induction and the “SRE luciferase fold-induction at 32 ng/ml” value was determined as 14.1 fold-induction. Further, in the experiment with GPCR73a receptor [2], the “SRE luciferase fold-induction at 100 ng/ml” value was 17.6 fold-induction, the “SRE luciferase fold-induction at 320 ng/ml” value is 22 fold-induction and the “SRE luciferase fold-induction at 1000 ng/ml” value was 13.9 fold-induction. Moreover, in the experiment with GPCR73b receptor [3], the “SRE luciferase fold-induction at 1 ng/ml” value was determined as 0.7 fold-induction, the “SRE luciferase fold-induction at 3.2 ng/ml” value worked out at 1.3 fold-induction, the “SRE luciferase fold-induction at 10 ng/ml” value was 1.9 fold-induction and the “SRE luciferase fold-induction at 32 ng/ml” value worked out at 3 fold-induction. In the experiment with GPCR73b receptor [3], the “SRE luciferase fold-induction at 100 ng/ml” value was determined as 4.7 fold-induction, the “SRE luciferase fold-induction at 320 ng/ml” value worked out at 6.3 fold-induction and the “SRE luciferase fold-induction at 1000 ng/ml” value turned out to be 7.1 fold-induction. Further, in the experiment with GPCR73b receptor [4], the “SRE luciferase fold-induction at 1 ng/ml” value was 1 fold-induction, the “SRE luciferase fold-induction at 3.2 ng/ml” value was found to be 1.2 fold-induction, the “SRE luciferase fold-induction at 10 ng/ml” value stood at 1.7 fold-induction and the “SRE luciferase fold-induction at 32 ng/ml” value was determined as 2.6 fold-induction. Besides, in the experiment with GPCR73b receptor [4], the “SRE luciferase fold-induction at 100 ng/ml” value came out at 4.4 fold-induction, the “SRE luciferase fold-induction at 320 ng/ml” value came to 5.2 fold-induction and the “SRE luciferase fold-induction at 1000 ng/ml” value worked out at 4.8 fold-induction.

B2: Zven1 protein produced in baculovirus with a C-terminal Glu-Glu tag (ligand)
chain: AVITGACDKDSQCGGGMCCAVSIWVKSIRICTPMGKLGDSCHPLTRKVPFFGRRMHHTCPCLPGLACLRTSFNRFICLAQKGLEYMPMD
Take B2: in experiment [5], the SRE luciferase fold-induction at 1 ng/ml (fold-induction) came to 2.5, the SRE luciferase fold-induction at 3.2 ng/ml (fold-induction) came out at 7.1, the SRE luciferase fold-induction at 10 ng/ml (fold-induction) turned out to be 13.1 and the SRE luciferase fold-induction at 32 ng/ml (fold-induction) was 18.7. The SRE luciferase fold-induction at 100 ng/ml (fold-induction) in experiment [5] worked out at 20.5. For the same molecule, the ERK-Map kinase activity in Wky12-22 cells, EC50 in [6] amounted to 0.5 nM. In experiment [7], the Bmax (fmol bound/10^6 cells) was 1020 and the Kd worked out at 31 nM. In experiment [8], this molecule yielded a Bmax (fmol bound/10^6 cells) of 350 and an equilibrium dissociation constant (Kd) of 1.5 nM.

B3: Heated Zven1 (Baculovirus-expressed Zven1 heated at 56° C. for 30 minutes) (ligand)
chain: AVITGACDKDSQCGGGMCCAVSIWVKSIRICTPMGKLGDSCHPLTRKVPFFGRRMHHTCPCLPGLACLRTSFNRFICLAQKGLEYMPMD
In the case of B3, in experiment [5], the SRE luciferase fold-induction at 1 ng/ml (fold-induction) was determined as 1.8, the SRE luciferase fold-induction at 3.2 ng/ml (fold-induction) is 3.7, the SRE luciferase fold-induction at 10 ng/ml (fold-induction) was 10 and the SRE luciferase fold-induction at 32 ng/ml (fold-induction) was found to be 14.8. Besides, the SRE luciferase fold-induction at 100 ng/ml (fold-induction) in experiment [5] came out at 18.6.

B4: Zven2 ("endocrine-gland-derived vascular endothelial growth factor") protein purchased from Peprotech, Inc. (ligand)
chain: AVITGACERDVQCGAGTCCAISLWLRGLRMCTPLGREGEECHPGSHKVPFFRKRKHHTCPCLPNLLCSRFPDGRYRCSMDLKNINF
For B4, in [5], the SRE luciferase fold-induction at 1 ng/ml (fold-induction) is 1.2, the SRE luciferase fold-induction at 3.2 ng/ml (fold-induction) came to 1.6, the SRE luciferase fold-induction at 10 ng/ml (fold-induction) is 2.5 and the SRE luciferase fold-induction at 32 ng/ml (fold-induction) was 5.8. Further, in [5], the SRE luciferase fold-induction at 100 ng/ml (fold-induction) came to 11.4, the SRE luciferase fold-induction at 320 ng/ml (fold-induction) worked out at 24.4 and the SRE luciferase fold-induction at 1000 ng/ml (fold-induction) is 20. Besides, in [9], the SRE luciferase fold-induction at 1 ng/ml (fold-induction) is 1.1, the SRE luciferase fold-induction at 3.2 ng/ml (fold-induction) worked out at 1.3, the SRE luciferase fold-induction at 10 ng/ml (fold-induction) turned out to be 1.8 and the SRE luciferase fold-induction at 32 ng/ml (fold-induction) was found to be 2.8. In addition, in experiment [9], the SRE luciferase fold-induction at 100 ng/ml (fold-induction) amounted to 5.6, the SRE luciferase fold-induction at 320 ng/ml (fold-induction) was found to be 8.3 and the SRE luciferase fold-induction at 1000 ng/ml (fold-induction) turned out to be 8.4. Besides, in [10], the SRE luciferase fold-induction at 1 ng/ml (fold-induction) is 0.95, the SRE luciferase fold-induction at 3.2 ng/ml (fold-induction) worked out at 1.3, the SRE luciferase fold-induction at 10 ng/ml (fold-induction) is 2.6 and the SRE luciferase fold-induction at 32 ng/ml (fold-induction) is 7.2. In addition, in [10], the SRE luciferase fold-induction at 320 ng/ml (fold-induction) is 20.5 and the SRE luciferase fold-induction at 1000 ng/ml (fold-induction) is 15. In experiment [11], the SRE luciferase fold-induction at 3.2 ng/ml (fold-induction) came to 1.4, the SRE luciferase fold-induction at 32 ng/ml (fold-induction) worked out at 2.7, the SRE luciferase fold-induction at 100 ng/ml (fold-induction) was determined as 4.1 and the SRE luciferase fold-induction at 320 ng/ml (fold-induction) was determined as 5.8. Moreover, the SRE luciferase fold-induction at 1000 ng/ml (fold-induction) in [11] was 6.1.
